The text below walks through data of patent EP4541891A1, “NOVEL LRP1-BINDING PEPTIDE” (Ichimaru Pharcos Co., Ltd., priority 2022, dated 2025).

Bridge positions count the residues as written; N and C are the ends. Square brackets hold non-standard residues; d marks the D form. Ends that are not written are not given here. Peptide text beside a SMILES is read from it. * marks the point of attachment. 5FAM = O=C1OC2(c3ccc(O)cc3Oc3cc(O)ccc32)c2ccc(C(=O)*)cc21; Biotin = O=C1N[C@H]2[C@H](CS[C@H]2CCCCC(=O)*)N1; Hyp = O=C(O)[C@@H]1C[C@@H](O)CN1; Nle = CCCC[C@H](N)C(=O)O; Aib = CC(C)(N)C(=O)O

The target of one assay is LRP1 cluster 4-Fc chimeric proteins (UniProt Q07954). The assay is described as follows: competitive ELISA, LRP1 cluster 4-Fc captured; peptide 2,000 nM against biotin-Sequence 46 500 nM.
Sequence of UniProt Q07954 (Q07954 3293-3783, stated change not applied): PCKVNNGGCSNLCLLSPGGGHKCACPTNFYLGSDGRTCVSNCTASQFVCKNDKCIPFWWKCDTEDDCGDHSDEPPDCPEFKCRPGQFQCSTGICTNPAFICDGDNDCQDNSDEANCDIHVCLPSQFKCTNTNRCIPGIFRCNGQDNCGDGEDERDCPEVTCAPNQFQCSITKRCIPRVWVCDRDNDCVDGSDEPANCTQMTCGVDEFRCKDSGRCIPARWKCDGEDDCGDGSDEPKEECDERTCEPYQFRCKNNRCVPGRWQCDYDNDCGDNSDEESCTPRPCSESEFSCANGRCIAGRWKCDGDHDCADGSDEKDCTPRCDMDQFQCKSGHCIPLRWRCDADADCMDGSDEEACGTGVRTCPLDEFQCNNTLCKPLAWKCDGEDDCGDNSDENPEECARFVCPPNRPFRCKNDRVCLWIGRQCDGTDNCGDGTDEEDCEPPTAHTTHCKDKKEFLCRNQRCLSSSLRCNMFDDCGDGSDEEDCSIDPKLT
Conditions: not given
A general note: ELISA stands for enzyme-linked immunosorbent assay.
In turn, Ac-K(5FAM)GTPCTYKY[Nle]L[Aib]E[Nle]C (disulfide 5-15) [SEQUENCE 34] returned an inhibitory activity (%) of 82%. For Ac-K(5FAM)GTP[dC]TYKY[Nle]LAE[Nle]C (disulfide 5-15) [SEQUENCE 6], the inhibitory activity (%) was 91.9%. Still for that read-out and setting: next, Ac-K(5FAM)GTPCTYKY[Nle]LAE[Nle][dC] (cysteine pairing not given here) [SEQUENCE 9]: 85.8%; Ac-K(5FAM)GTPC[Hyp]YKY[Nle]LAE[Nle]C (disulfide 5-15) [SEQUENCE 19]: 79.1%; Ac-K(5FAM)GTP[dC]TYKY[Nle]LAE[Nle]C (bridge 5-15 via S‑C‑S (methylene)) [SEQUENCE 7]: 87.6%. Molecule Ac-K(5FAM)GTPCTYKY[Nle]LAE[Nle]PC (disulfide 5-16) [SEQUENCE 43] showed an inhibitory activity (%) of 83.5%. The molecule Ac-K(5FAM)GTPCTYRY[Nle]LAE[Nle]C (disulfide 5-15) [SEQUENCE 24] returned an inhibitory activity (%) of 77.4%.

In the case of Ac-K(5FAM)GTPCTYKY[Nle]LAE[Nle]C (cysteine pairing not given here) [SEQUENCE 1], the inhibitory activity (%) is 70.7%.

In a further assay the test system is LRP1 cluster 4-Fc chimeric proteins. As to the kind of experiment: Competitive binding assay by ELISA against Sequence 46. The settings on record: peptide 2,000 nM versus Sequence 46 (500 nM); time point not stated. The method, then:
For comparison between the peptide of Sequence 1 with amino acid substitutions and the peptide of Sequence 2 in terms of the LRP1 binding activity and the resistance to protease degradation, a competitive binding assay by ELISA shown in FIG. 2 was constructed. Immediately (zero hour) or 24 hours after the mixing of the peptide of Sequence 2 or the amino acid-substituted peptide with mouse plasma at 37°C, the mixture was diluted to sufficiently lower the plasma concentration to any desired final concentration, and mixed with Sequence 46 (500 nM). This mixture was subjected to the competitive binding assay described above. The binding of Sequence 46 to the LRP1 cluster 4-Fc chimera proteins competes with the binding of Sequence 2 or the amino acid-substituted peptide to the LRP1 cluster 4-Fc chimera proteins, and thus is inhibited depending on the concentration of Sequence 2 or the amino acid-substituted peptide. That is, the binding activity of Sequence 2 or the amino acid-substituted peptide to the LRP1 cluster 4-Fc chimera proteins is detected as competitive inhibitory activity against the binding of Sequence 46. Regarding the binding value of Sequence 46 to the wells in which the LRP1 cluster 4-Fc chimeric proteins were not captured as 100% inhibitory activity and the binding value of Sequence 46 to the wells in which Sequence 2 or the amino acid-substituted peptide was not added as 0% inhibitory activity, the inhibitory activity values of Sequence 2 and the amino acid-substituted peptide were calculated in %.
Sequence 2 incubated with plasma for zero hour inhibited the binding of Sequence 46 in a concentration-dependent manner. […] However, the binding of Sequence 46 (500 nM) in wells loaded with 2,000 nM equivalent Sequence 2 averaged 50.6%.
Immediately or 24 hours after Sequences 1 to 44 were mixed with mouse plasma at 37°C, the mixtures were diluted to sufficiently lower the plasma concentration to a final concentration of 2,000 nM, and mixed with Sequence 46 (500 nM). The obtained mixtures were subjected to the above-described competitive binding assay. […] Other sequences tended to have diminished inhibitory activities.
As for “Ac-Lys(5FAM)-Gly-Thr-Pro-Cys-Thr-Tyr-Lys-Tyr-Nle-Leu-Ala-Glu-Nle-^DCys-OH (Ac-K(5FAM)GTPCTYKY[Nle]LAE[Nle][dC]-OH; cysteine pairing not given here) [Sequence 9]”, the inhibitory activity turned out to be 85.8%. With “Ac-Lys(5FAM)-Gly-Thr-Pro-c(^DCys-Thr-Tyr-Lys-Tyr-Nle-Leu-Ala-Glu-Nle-Cys)-OH (KGTPCTYKYXLAEXC; N-acetyl, Lys(5FAM), cyclic, D-residue, Nle residues; CROSSLNK 5..15: note = methylene thioactal (-S-CH2-S-); SITE 5: note = D-Cys; SITE 10: note = Nle; SITE 14: note = Nle; MOD_RES 1: note = N-acetyllysine labeled with 5-FAM) [Sequence 7]”, the inhibitory activity is given as 87.6%.

Molecule `CCCC[C@@H]1NC(=O)[C@H](Cc2ccc(O)cc2)NC(=O)[C@H](CCCCN)NC(=O)[C@H](Cc2ccc(O)cc2)NC(=O)[C@H]([C@@H](C)O)NC(=O)[C@@H](NC(=O)[C@@H]2CCCN2C(=O)[C@@H](NC(=O)CNC(=O)[C@H](CCCCNC(=O)c2ccc3c(c2)C(=O)OC32c3ccc(O)cc3Oc3cc(O)ccc32)NC(C)=O)[C@@H](C)O)CSSC[C@@H](C(=O)O)NC(=O)[C@@H]2CCCN2C(=O)[C@H](CCCC)NC(=O)[C@H](CCC(=O)O)NC(=O)[C@H](C)NC(=O)[C@H](CC(C)C)NC1=O` [Sequence 43, Ac-Lys(5FAM)-Gly-Thr-Pro-c(Cys-Thr-Tyr-Lys-Tyr-Nle-Leu-Ala-Glu-Nle-Pro-Cys)-OH] (Ac-K(5FAM)GTPCTYKY[Nle]LAE[Nle]PC-OH; disulfide 5-16) came in with an inhibitory activity of 83.5%. Same read-out and setting: next, `CCCC[C@@H]1NC(=O)[C@H](CCC(=O)O)NC(=O)C(C)(C)NC(=O)[C@H](CC(C)C)NC(=O)[C@H](CCCC)NC(=O)[C@H](Cc2ccc(O)cc2)NC(=O)[C@H](CCCCN)NC(=O)[C@H](Cc2ccc(O)cc2)NC(=O)[C@H]([C@@H](C)O)NC(=O)[C@@H](NC(=O)[C@@H]2CCCN2C(=O)[C@@H](NC(=O)CNC(=O)[C@H](CCCCNC(=O)c2ccc3c(c2)C(=O)OC32c3ccc(O)cc3Oc3cc(O)ccc32)NC(C)=O)[C@@H](C)O)CSSC[C@@H](C(=O)O)NC1=O` [Sequence 34, Ac-Lys(5FAM)-Gly-Thr-Pro-c(Cys-Thr-Tyr-Lys-Tyr-Nle-Leu-Aib-Glu-Nle-Cys)-OH] (Ac-K(5FAM)GTPCTYKY[Nle]L[Aib]E[Nle]C-OH; disulfide 5-15): 82.0%; `CCCC[C@@H]1NC(=O)[C@H](CCC(=O)O)NC(=O)[C@H](C)NC(=O)[C@H](CC(C)C)NC(=O)[C@H](CCCC)NC(=O)[C@H](Cc2ccc(O)cc2)NC(=O)[C@H](CCCCN)NC(=O)[C@H](Cc2ccc(O)cc2)NC(=O)[C@H]([C@@H](C)O)NC(=O)[C@H](NC(=O)[C@@H]2CCCN2C(=O)[C@@H](NC(=O)CNC(=O)[C@H](CCCCNC(=O)c2ccc3c(c2)C(=O)OC32c3ccc(O)cc3Oc3cc(O)ccc32)NC(C)=O)[C@@H](C)O)CSSC[C@@H](C(=O)O)NC1=O` [Sequence 6, Ac-Lys(5FAM)-Gly-Thr-Pro-c(^DCys-Thr-Tyr-Lys-Tyr-Nle-Leu-Ala-Glu-Nle-Cys)-OH] (Ac-K(5FAM)GTP[dC]TYKY[Nle]LAE[Nle]C-OH; disulfide 5-15): 91.9%. On to `CCCC[C@@H]1NC(=O)[C@H](CCC(=O)O)NC(=O)[C@H](C)NC(=O)[C@H](CC(C)C)NC(=O)[C@H](CCCC)NC(=O)[C@H](Cc2ccc(O)cc2)NC(=O)[C@H](CCCNC(=N)N)NC(=O)[C@H](Cc2ccc(O)cc2)NC(=O)[C@H]([C@@H](C)O)NC(=O)[C@@H](NC(=O)[C@@H]2CCCN2C(=O)[C@@H](NC(=O)CNC(=O)[C@H](CCCCNC(=O)c2ccc3c(c2)C(=O)OC32c3ccc(O)cc3Oc3cc(O)ccc32)NC(C)=O)[C@@H](C)O)CSSC[C@@H](C(=O)O)NC1=O` [Sequence 24, Ac-Lys(5FAM)-Gly-Thr-Pro-c(Cys-Thr-Tyr-Arg-Tyr-Nle-Leu-Ala-Glu-Nle-Cys)-OH] (Ac-K(5FAM)GTPCTYRY[Nle]LAE[Nle]C-OH; disulfide 5-15), for which the inhibitory activity stood at 77.4%. The molecule “Ac-Lys(5FAM)-Gly-Thr-Pro-Cys-Thr-Tyr-Lys-Tyr-Nle-Leu-Ala-Glu-Nle-Cys)-OH (Ac-K(5FAM)GTPCTYKY[Nle]LAE[Nle]C-OH; not fully specified (bridges); printed as Ac-Lys(5FAM)-Gly-Thr-Pro-Cys-Thr-Tyr-Lys-Tyr-Nle-Leu-Ala-Glu-Nle-Cys)-OH; also: cyclic, bridge type not given here) [Sequence 1]” returned an inhibitory activity of 70.7%.

For another assay, the target named is LRP1 cluster 4-Fc chimeric proteins (UniProt Q07954). As to the kind of experiment: ELISA, LRP1 cluster 4-Fc captured, biotin peptide detected with SA-HRP.
Conditions: not given
Take Ac-K(Biotin)GTPCTYKY[Nle]LAE[Nle]C (cysteine pairing not given here) [SEQUENCE 45]: the EC50 (usually the concentration needed to bring the measured effect to its halfway point) came to 10.5 nM.

Molecule Ac-K(Biotin)GTPCTYKY[Nle]LAE[Nle]C (disulfide 5-15) [SEQUENCE 46] yielded an EC50 of 11 nM.
